For 27 molecules, He/Con_1a and Ho/Con_1a results are on record in patent publication US20180155451A1 (published 2018).

To fix the notation:
B1: GpH7-A5/GpH7-B3 variant (T335_04F)/GpL16-k0 (antibody, human IgG1, kappa)
heavy 1: not shown
heavy 2: not shown
light: DIVMTQSPLSLPVTPGEPASISCQASESLVHSNRNTYLHWYLQKPGQSPQLLIYKVSNRFSGVPDRFSGSGSGTDFTLKISRVEAEDVGVYYCSQNTHVPPTFGQGTKVEIERTVAAPSVFIFPPSDEQLKSGTASVVCLLNNFYPREAKVQWKVDNALQSGNSQESVTEQDSKDSTYSLSSTLTLSKADYEKHKVYACEVTHQGLSSPVTKSFNRGEC
notes: Heterodimerized; only the B3 chain altered; also called He Ab T335_04F
B2: GpH7-A5/GpH7-B3 variant (I336_11K)/GpL16-k0 (antibody, human IgG1, kappa)
heavy 1: not shown
heavy 2: not shown
light: B1 light
notes: Heterodimerized; only the B3 chain altered; also called He Ab I336_11K
B3: GpH7-A5/GpH7-B3 variant (A330_19Q)/GpL16-k0 (antibody, human IgG1, kappa)
heavy 1: not shown
heavy 2: not shown
light: B1 light
notes: Heterodimerized; only the B3 chain altered; also called He Ab A330_19Q
B4: GpH7-A5/GpH7-B3 variant (A330_01G)/GpL16-k0 (antibody, human IgG1, kappa)
heavy 1: not shown
heavy 2: not shown
light: B1 light
notes: Heterodimerized; only the B3 chain altered; also called He Ab A330_01G
B5: GpH7-A5/GpH7-B3 variant (A330_10E)/GpL16-k0 (antibody, human IgG1, kappa)
heavy 1: not shown
heavy 2: not shown
light: B1 light
notes: Heterodimerized; only the B3 chain altered; also called He Ab A330_10E
B6: GpH7-A5/GpH7-B3 variant (H268_01G)/GpL16-k0 (antibody, human IgG1, kappa)
heavy 1: not shown
heavy 2: not shown
light: B1 light
notes: Heterodimerized; only the B3 chain altered; also called He Ab H268_01G
B7: GpH7-A5/GpH7-B3 variant (H268_18N)/GpL16-k0 (antibody, human IgG1, kappa)
heavy 1: not shown
heavy 2: not shown
light: B1 light
notes: Heterodimerized; only the B3 chain altered; also called He Ab H268_18N
B8: GpH7-A5/GpH7-B3 variant (A330_04F)/GpL16-k0 (antibody, human IgG1, kappa)
heavy 1: not shown
heavy 2: not shown
light: B1 light
notes: Heterodimerized; only the B3 chain altered; also called He Ab A330_04F
B9: GpH7-A5/GpH7-B3 variant (H268_13S)/GpL16-k0 (antibody, human IgG1, kappa)
heavy 1: not shown
heavy 2: not shown
light: B1 light
notes: Heterodimerized; only the B3 chain altered; also called He Ab H268_13S
B10: GpH7-A5/GpH7-B3 variant (I336_08L)/GpL16-k0 (antibody, human IgG1, kappa)
heavy 1: not shown
heavy 2: not shown
light: B1 light
notes: Heterodimerized; only the B3 chain altered; also called He Ab I336_08L
B11: GpH7-A5/GpH7-B3 variant (H268_10E)/GpL16-k0 (antibody, human IgG1, kappa)
heavy 1: not shown
heavy 2: not shown
light: B1 light
notes: Heterodimerized; only the B3 chain altered; also called He Ab H268_10E
B12: GpH7-A5/GpH7-B3 variant (A330_20W)/GpL16-k0 (antibody, human IgG1, kappa)
heavy 1: not shown
heavy 2: not shown
light: B1 light
notes: Heterodimerized; only the B3 chain altered; also called He Ab A330_20W
B13: GpH7-A5/GpH7-B3 variant (I336_09D)/GpL16-k0 (antibody, human IgG1, kappa)
heavy 1: not shown
heavy 2: not shown
light: B1 light
notes: Heterodimerized; only the B3 chain altered; also called He Ab I336_09D
B14: GpH7-A5/GpH7-B3 variant (H268_09D)/GpL16-k0 (antibody, human IgG1, kappa)
heavy 1: not shown
heavy 2: not shown
light: B1 light
notes: Heterodimerized; only the B3 chain altered; also called He Ab H268_09D
B15: GpH7-A5/GpH7-B3 variant (D265_10E)/GpL16-k0 (antibody, human IgG1, kappa)
heavy 1: not shown
heavy 2: not shown
light: B1 light
notes: Heterodimerized; only the B3 chain altered; also called He Ab D265_10E
B16: GpH7-B3 variant (I336_11K)/GpL16-k0 (antibody, human IgG1, kappa)
heavy: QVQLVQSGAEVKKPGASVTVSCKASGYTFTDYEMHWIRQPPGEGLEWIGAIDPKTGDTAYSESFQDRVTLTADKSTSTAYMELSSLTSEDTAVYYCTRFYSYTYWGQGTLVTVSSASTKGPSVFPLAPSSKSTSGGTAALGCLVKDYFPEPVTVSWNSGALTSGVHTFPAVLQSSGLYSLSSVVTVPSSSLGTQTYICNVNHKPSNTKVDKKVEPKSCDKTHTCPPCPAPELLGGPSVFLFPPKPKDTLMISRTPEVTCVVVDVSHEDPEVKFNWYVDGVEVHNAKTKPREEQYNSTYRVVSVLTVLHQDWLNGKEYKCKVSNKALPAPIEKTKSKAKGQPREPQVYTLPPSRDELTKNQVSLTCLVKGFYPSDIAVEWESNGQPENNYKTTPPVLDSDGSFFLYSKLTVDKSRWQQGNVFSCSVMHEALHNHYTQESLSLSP
light: B1 light
notes: Homodimerized; both H chains altered; also called Ho Ab I336_11K
B17: GpH7-B3 variant (T335_18N)/GpL16-k0 (antibody, human IgG1, kappa)
heavy: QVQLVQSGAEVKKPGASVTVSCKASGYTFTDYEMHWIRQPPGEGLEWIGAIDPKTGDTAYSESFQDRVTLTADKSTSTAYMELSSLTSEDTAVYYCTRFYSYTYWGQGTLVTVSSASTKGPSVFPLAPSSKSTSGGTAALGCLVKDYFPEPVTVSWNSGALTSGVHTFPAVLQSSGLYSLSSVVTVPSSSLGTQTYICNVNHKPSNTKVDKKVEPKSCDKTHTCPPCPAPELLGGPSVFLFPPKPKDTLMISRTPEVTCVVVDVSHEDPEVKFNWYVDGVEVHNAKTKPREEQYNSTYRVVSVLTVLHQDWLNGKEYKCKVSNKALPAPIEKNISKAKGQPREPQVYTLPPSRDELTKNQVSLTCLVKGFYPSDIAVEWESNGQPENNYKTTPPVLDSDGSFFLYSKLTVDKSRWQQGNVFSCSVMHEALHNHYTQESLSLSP
light: B1 light
notes: Homodimerized; both H chains altered; also called Ho Ab T335_18N
B18: GpH7-B3 variant (T335_05P)/GpL16-k0 (antibody, human IgG1, kappa)
heavy: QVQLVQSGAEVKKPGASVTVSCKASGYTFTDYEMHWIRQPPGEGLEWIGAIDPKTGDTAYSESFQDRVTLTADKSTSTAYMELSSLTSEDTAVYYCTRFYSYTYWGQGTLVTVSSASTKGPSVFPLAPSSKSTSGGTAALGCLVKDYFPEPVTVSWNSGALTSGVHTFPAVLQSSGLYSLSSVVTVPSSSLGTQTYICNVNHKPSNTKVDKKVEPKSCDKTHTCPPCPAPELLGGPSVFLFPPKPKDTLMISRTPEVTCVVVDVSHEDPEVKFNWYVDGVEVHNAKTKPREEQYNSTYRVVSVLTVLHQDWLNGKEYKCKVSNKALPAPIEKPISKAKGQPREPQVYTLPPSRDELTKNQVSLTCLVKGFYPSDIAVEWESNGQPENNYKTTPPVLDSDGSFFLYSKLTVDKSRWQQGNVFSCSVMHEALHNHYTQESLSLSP
light: B1 light
notes: Homodimerized; both H chains altered; also called Ho Ab T335_05P
B19: GpH7-B3 variant (Y300_19Q)/GpL16-k0 (antibody, human IgG1, kappa)
heavy: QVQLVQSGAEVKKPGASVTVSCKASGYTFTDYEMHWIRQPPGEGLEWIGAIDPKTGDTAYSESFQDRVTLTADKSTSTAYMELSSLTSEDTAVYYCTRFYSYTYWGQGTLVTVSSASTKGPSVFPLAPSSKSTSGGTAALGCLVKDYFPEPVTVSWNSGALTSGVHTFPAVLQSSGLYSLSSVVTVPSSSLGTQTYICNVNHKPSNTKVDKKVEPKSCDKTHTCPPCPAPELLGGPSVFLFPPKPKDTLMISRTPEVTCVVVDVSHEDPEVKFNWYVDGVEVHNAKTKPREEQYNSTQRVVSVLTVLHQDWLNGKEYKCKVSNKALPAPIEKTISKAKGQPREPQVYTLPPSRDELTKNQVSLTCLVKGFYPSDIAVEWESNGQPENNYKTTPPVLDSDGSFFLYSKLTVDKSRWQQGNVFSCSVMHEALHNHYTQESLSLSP
light: B1 light
notes: Homodimerized; both H chains altered; also called Ho Ab Y300_19Q
B20: GpH7-B3 variant (S337_07I)/GpL16-k0 (antibody, human IgG1, kappa)
heavy: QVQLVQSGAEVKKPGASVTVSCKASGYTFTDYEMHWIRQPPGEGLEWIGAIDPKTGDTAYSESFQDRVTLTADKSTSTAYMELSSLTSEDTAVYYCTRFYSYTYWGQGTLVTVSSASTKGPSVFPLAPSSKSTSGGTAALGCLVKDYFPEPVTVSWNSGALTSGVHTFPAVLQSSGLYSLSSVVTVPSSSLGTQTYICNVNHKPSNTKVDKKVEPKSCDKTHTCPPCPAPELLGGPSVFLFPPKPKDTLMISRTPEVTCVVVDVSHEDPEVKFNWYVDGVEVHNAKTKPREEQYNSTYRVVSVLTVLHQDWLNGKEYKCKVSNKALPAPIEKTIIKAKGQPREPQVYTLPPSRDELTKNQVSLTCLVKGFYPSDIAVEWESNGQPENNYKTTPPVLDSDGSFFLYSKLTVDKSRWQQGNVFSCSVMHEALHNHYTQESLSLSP
light: B1 light
notes: Homodimerized; both H chains altered; also called Ho Ab S337_07I
B21: GpH7-B3 variant (S337_04F)/GpL16-k0 (antibody, human IgG1, kappa)
heavy: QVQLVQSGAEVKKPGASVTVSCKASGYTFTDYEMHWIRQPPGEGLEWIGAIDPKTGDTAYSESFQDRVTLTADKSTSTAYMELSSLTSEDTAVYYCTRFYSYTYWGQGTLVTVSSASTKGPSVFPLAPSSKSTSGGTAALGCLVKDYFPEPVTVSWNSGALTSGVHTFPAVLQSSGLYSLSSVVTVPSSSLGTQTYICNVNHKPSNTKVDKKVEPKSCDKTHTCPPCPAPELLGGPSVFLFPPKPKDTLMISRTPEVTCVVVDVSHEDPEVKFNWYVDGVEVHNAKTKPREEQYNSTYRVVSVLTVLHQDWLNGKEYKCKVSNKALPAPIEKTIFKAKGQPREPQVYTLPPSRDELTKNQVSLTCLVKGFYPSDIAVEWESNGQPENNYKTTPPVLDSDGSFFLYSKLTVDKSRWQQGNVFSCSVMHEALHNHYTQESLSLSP
light: B1 light
notes: Homodimerized; both H chains altered; also called Ho Ab S337_04F
B22: GpH7-B3 variant (I336_14T)/GpL16-k0 (antibody, human IgG1, kappa)
heavy: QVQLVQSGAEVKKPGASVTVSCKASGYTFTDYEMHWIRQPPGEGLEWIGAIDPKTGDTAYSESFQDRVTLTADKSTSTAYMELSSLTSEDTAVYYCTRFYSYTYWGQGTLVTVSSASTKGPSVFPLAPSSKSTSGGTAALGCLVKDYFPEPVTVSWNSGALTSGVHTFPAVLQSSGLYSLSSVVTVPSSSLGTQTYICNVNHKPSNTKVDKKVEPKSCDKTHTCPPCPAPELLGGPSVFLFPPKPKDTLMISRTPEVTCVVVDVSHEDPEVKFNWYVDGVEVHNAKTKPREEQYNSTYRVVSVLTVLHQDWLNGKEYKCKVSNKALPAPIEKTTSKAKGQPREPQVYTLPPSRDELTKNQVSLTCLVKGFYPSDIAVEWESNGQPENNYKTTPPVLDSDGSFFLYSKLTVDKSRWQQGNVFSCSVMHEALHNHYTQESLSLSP
light: B1 light
notes: Homodimerized; both H chains altered; also called Ho Ab I336_14T
B23: GpH7-B3 variant (T335_08L)/GpL16-k0 (antibody, human IgG1, kappa)
heavy: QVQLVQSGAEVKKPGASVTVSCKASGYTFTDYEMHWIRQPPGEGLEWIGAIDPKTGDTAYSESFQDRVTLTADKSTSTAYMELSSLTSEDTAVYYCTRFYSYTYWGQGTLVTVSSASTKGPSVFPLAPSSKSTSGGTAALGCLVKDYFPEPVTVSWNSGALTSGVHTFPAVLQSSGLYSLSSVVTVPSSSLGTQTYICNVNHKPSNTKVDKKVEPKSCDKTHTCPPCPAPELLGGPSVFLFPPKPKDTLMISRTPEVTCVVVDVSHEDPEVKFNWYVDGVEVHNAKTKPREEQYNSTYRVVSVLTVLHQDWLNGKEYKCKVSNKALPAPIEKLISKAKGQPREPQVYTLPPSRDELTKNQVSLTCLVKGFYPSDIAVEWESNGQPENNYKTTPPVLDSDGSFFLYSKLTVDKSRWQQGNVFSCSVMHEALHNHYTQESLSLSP
light: B1 light
notes: Homodimerized; both H chains altered; also called Ho Ab T335_08L
B24: GpH7-B3 variant (T335_16H)/GpL16-k0 (antibody, human IgG1, kappa)
heavy: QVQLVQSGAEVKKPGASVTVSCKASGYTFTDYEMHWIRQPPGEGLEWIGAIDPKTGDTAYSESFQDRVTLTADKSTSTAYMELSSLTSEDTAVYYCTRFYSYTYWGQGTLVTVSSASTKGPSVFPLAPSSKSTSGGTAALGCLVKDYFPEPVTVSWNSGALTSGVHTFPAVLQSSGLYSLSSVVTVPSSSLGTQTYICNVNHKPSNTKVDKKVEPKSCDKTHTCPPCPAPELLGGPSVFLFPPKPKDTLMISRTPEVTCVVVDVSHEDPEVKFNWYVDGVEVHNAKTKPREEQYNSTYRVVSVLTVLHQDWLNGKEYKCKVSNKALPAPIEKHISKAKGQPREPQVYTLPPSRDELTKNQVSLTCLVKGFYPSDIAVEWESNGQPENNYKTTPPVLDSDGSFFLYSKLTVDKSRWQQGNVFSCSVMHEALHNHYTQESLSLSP
light: B1 light
notes: Homodimerized; both H chains altered; also called Ho Ab T335_16H
B25: GpH7-B3 variant (Y300_14T)/GpL16-k0 (antibody, human IgG1, kappa)
heavy: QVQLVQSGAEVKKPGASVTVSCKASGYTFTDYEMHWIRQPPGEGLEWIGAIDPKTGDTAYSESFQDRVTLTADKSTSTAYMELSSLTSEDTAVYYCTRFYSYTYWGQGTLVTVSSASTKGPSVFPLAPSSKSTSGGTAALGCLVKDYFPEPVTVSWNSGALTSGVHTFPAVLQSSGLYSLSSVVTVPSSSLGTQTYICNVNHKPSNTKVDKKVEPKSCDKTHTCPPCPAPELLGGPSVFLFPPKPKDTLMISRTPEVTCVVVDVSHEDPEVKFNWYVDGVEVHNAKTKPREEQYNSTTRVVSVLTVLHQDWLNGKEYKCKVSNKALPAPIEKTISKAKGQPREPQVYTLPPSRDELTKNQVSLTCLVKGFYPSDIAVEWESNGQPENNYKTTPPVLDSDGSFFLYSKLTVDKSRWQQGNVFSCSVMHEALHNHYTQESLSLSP
light: B1 light
notes: Homodimerized; both H chains altered; also called Ho Ab Y300_14T
B26: GpH7-B3 variant (Y300_02A)/GpL16-k0 (antibody, human IgG1, kappa)
heavy: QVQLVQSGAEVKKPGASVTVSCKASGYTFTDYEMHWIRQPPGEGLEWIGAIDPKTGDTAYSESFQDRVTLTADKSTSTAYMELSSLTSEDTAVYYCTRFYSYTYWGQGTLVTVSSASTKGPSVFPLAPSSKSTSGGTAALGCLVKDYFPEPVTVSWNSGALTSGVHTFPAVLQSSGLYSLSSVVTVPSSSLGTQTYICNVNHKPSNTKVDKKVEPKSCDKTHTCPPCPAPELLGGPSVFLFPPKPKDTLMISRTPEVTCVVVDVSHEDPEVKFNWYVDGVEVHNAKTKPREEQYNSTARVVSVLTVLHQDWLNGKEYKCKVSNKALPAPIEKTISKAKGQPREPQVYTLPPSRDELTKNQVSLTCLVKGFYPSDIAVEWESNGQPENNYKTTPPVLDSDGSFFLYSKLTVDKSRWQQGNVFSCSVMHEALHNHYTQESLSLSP
light: B1 light
notes: Homodimerized; both H chains altered; also called Ho Ab Y300_02A
B27: GpH7-B3 variant (Y296_16H)/GpL16-k0 (antibody, human IgG1, kappa)
heavy: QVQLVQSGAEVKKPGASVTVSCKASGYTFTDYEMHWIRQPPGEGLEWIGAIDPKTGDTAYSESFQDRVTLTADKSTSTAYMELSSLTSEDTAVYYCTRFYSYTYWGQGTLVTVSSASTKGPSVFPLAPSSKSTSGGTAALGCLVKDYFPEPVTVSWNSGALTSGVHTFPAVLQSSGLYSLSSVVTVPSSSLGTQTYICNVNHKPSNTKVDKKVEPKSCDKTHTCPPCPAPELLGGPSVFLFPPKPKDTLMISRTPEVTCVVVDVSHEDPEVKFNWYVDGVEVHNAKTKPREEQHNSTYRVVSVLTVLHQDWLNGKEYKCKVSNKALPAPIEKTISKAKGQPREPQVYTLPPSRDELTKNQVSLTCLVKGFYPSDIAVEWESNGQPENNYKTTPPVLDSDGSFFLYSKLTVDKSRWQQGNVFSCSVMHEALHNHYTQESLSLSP
light: B1 light
notes: Homodimerized; both H chains altered; also called Ho Ab Y296_16H

The target in the first experiment is T1, FcγRIa extracellular domain with C-terminal His tag (human, UniProt P12314 16-292).
T1 construct: extracellular domain; Expressed in FreeStyle293 cells; used as analyte in Biacore; also called FcgRI; 1a; not shown: His tag at the C terminus
T1 sequence (P12314 16-292): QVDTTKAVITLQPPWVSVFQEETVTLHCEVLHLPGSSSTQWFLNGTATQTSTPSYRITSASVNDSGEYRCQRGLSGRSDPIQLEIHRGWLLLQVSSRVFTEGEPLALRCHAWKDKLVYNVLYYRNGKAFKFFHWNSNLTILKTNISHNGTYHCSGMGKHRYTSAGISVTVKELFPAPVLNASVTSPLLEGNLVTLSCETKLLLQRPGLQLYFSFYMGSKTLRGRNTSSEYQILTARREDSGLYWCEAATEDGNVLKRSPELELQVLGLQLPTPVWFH
The experiment is described as follows: SPR (Biacore), captured antibody, FcγRIa analyte; relative to GpH7-A5/GpH7-B3/GpL16-k0 = 100.
With B1, the He/Con_1a is 105 % of control. The same measure, in the same setting: with B2 the figure was 105 % of control. The same measure, in the same setting: the result for B3 reads 105 % of control; that for B4, 106 % of control; that for B5, 107 % of control. With B6, the He/Con_1a was 107 % of control.

For the molecule B7, the He/Con_1a is 108 % of control. On to B8, for which the He/Con_1a is 106 % of control. As to B9, the He/Con_1a was 109 % of control.

On to B10, for which the He/Con_1a is 107 % of control. On to B11, for which the He/Con_1a was 111 % of control. The same measure, in the same setting: the result for B12 reads 108 % of control; that for B13, 104 % of control; that for B14, 110 % of control. Still for that read-out and setting: the result for B15 reads 101 % of control.

The next experiment addresses T1, FcγRIa extracellular domain with …. The experiment is described as follows: SPR (Biacore), captured antibody, FcγRIa analyte; relative to GpH7-B3/GpL16-k0 = 100. For orientation: In SPR one partner is held on a chip, and binding of the other changes the refractive index at the surface.
In the case of B16, the Ho/Con_1a was 107 % of control.

As to B17, the Ho/Con_1a is 102 % of control. On the same count and under the same terms, with B18 the figure was 106 % of control; with B19, 110 % of control. Turning to B20, the Ho/Con_1a is 105 % of control.

With B21, the Ho/Con_1a is 105 % of control. Same read-out and setting: with B22 the figure was 111 % of control. Same read-out and setting: with B23 the figure was 105 % of control; with B24, 104 % of control. Still for that read-out and setting: with B25 the figure was 110 % of control; with B26, 110 % of control; with B27, 105 % of control.
